Source: patent US20140302027A1, “METHODS OF TREATING PERIODONTAL INFLAMMATION AND PERIODONTAL BONE LOSS” (United States of America as Represented by the Secretary, …, priority 2011, published 2014)
“Also recorded” adds a separate entry of the source.

Assays:
[1] = tested on: mouse neutrophils; details: cited from earlier work
[2] = tested on: periodontal inflammation in old mice; assay: Immunohistochemistry of interdental gingiva of old mice microinjected with Del-1 or BSA; format: in vivo, C57BL/6 mice
Protocol: FIG. 24. Del-1 inhibits IL-17 and periodontal inflammation in old mice. Eighteen-month-old C57BL/6 mice were microinjected in the gingiva with BSA (control) or Del-1, as indicated. In addition, the mice were orally administered P. gingivalis in 2% carboxymethylcellulose vehicle (a, b, c; lower rows) or vehicle control (a, b, c; upper rows) and were sacrificed 12 h later. Sagittal sections of interdental gingiva were stained for the neutrophil marker Ly6G (a), IL-17A (b), or TNF (c). Shown are typical fluorescent confocal images (left) and their overlays with corresponding DIC images (right). (d) The fluorescence intensities of these and additional representative images from independent mice were quantified using ImageJ analysis; data were expressed as % intensity of the Del-1-treated groups relative to the BSA-treated controls, the value of which was set to 100% (dashed line). ‘Induced inflammation’ refers to the groups inoculated with P. gingivalis. Data are means±SD (n=5 mice per group) from one of two independent experiments yielding similar results. **P<0.01 compared to BSA-treated controls.
(§1) Ten 18-month-old C57BL/6 mice were microinjected in the gingiva with soluble recombinant mouse Del-1 (kindly provided by Valentis, Inc.)^4 and another ten mice with BSA control. Specifically, Del-1 or BSA (1 μg in 1-μl volume) were microinjected through a 28.5-gauge MicroFine needle (BD) into the palatal gingiva between the first and the second molar teeth, on both sides of the maxilla. Half of the Del-1 or BSAtreated mice were additionally orally inoculated with P. gingivalis ATCC 33277 (10^9 CFU) in 2% carboxymethylcellulose vehicle and the other half were orally given vehicle alone. All mice were sacrificed 12 h later. Maxillae were harvested and one side was stored in 4% paraformaldehyde for immunohistochemistry (see below), while the other side was used to dissect interdental gingiva which were placed into RNAlater solution (Ambion) for qPCR (see below). To determine whether IL-17 regulates Del-1 expression, a neutralizing anti-IL-17A mAb (clone M210, rat IgG2a; kindly provided by Amgen) was microinjected into the palatal gingiva (1 μg) as described above. Purified azide-free rat IgG2a (Biolegend) served as control. qPCR was used to determine […] in dissected gingiva.
Maxillae with intact surrounding tissue were fixed in 4% paraformaldehyde, decalcified in Immunocal solution (Decal) for 15 days, and embedded in OCT compound. Serial mesio-distal sections (7- to 8-μm thick) parallel to the long axis of the teeth (sagittal) were stained with monoclonal antibodies to mouse Ly6G (RB6-8C5, FITC-conjugate; LifeSpan BioSciences), mouse CD4 (GK1.5, FITC- or PE-conjugate; LifeSpan), mouse γδ T-cell receptor (GL3, FITC-conjugate; LifeSpan Biosciences) or with polyclonal antibodies to human/mouse Del-1 (ProteinTech), human/mouse IL-17A (Santa Cruz Biotech), human/mouse TNF (Abcam), human/mouse RANKL (Santa Cruz), and mouse CD31 (LifeSpan). Where necessary, staining involved the use of a secondary reagent (AlexaFluor594-conjugated goat anti-rabbit IgG; Molecular Probes). The specificity of staining was confirmed by using appropriate FITC-conjugated isotype controls or normal rabbit IgG followed by AlexaFluor594-goat anti-rabbit IgG. Images were captured using a laser-scanning confocal microscope (Olympus FV1000). Fluorescence intensity was quantified using the Image J software (NIH; http://rsb.info.nih.gov/ij).

[3] = tested on: WT neutrophils; assay: Cytokine/chemokine release by isolated neutrophils stimulated with LPS plus C5a; format: cell-based, mouse; details: soluble Del-1 10 μg/ml, LPS (100 ng/ml) plus C5a (10 nM), 4 h
Protocol: FIG. 27. Effects of Del-1 deficiency or Del-1 on neutrophil function. (a) Migration of neutrophils isolated from wild-type (WT) or Edil3^−/− mice was tested in a transwell system. Chemokinesis (in the absence of a chemokine in the bottom well) or chemotaxis to CXCL2 (10 ng/ml) in the bottom well was assessed after 60 min. The migration of WT neutrophils in the absence of chemokine was set as the 100% control (dashed line) and the data were expressed relative to this value. (b) Neutrophils isolated from WT or Edil3^−/− mice were stimulated or not for 4 h with LPS (100 ng/ml) plus C5a (10 nM) and release of the indicated cytokines or chemokines in the culture supernatants was determined by ELISA. (c) WT neutrophils, in the presence or absence of soluble Del-1 (10 μg/ml), were stimulated as above and assayed for release of the indicated cytokines or chemokines. Data are means±SD (n=3 sets of neutrophils), from one of two independent sets of experiments yielding similar results.
Mouse neutrophils were obtained by harvesting the bone marrow (Ley (2007)). Briefly, bone marrow cells, obtained after flushing tibias and femurs with RPMI 1640 containing 10% FBS, were depleted of tissue debris and erythrocytes and were resuspended in 45% Percoll. […] Neutrophil purity was routinely >95%, as determined by FACS after staining for Ly6G, F4/80, and CD3.

[4] = molecular target: T1, LFA-1 (Mus musculus, UniProt P24063); details: at equimolar amounts; cited from earlier work
T1 construct: host or cells: leukocytes (endogenous LFA-1)
T1 sequence (P24063 24-1162): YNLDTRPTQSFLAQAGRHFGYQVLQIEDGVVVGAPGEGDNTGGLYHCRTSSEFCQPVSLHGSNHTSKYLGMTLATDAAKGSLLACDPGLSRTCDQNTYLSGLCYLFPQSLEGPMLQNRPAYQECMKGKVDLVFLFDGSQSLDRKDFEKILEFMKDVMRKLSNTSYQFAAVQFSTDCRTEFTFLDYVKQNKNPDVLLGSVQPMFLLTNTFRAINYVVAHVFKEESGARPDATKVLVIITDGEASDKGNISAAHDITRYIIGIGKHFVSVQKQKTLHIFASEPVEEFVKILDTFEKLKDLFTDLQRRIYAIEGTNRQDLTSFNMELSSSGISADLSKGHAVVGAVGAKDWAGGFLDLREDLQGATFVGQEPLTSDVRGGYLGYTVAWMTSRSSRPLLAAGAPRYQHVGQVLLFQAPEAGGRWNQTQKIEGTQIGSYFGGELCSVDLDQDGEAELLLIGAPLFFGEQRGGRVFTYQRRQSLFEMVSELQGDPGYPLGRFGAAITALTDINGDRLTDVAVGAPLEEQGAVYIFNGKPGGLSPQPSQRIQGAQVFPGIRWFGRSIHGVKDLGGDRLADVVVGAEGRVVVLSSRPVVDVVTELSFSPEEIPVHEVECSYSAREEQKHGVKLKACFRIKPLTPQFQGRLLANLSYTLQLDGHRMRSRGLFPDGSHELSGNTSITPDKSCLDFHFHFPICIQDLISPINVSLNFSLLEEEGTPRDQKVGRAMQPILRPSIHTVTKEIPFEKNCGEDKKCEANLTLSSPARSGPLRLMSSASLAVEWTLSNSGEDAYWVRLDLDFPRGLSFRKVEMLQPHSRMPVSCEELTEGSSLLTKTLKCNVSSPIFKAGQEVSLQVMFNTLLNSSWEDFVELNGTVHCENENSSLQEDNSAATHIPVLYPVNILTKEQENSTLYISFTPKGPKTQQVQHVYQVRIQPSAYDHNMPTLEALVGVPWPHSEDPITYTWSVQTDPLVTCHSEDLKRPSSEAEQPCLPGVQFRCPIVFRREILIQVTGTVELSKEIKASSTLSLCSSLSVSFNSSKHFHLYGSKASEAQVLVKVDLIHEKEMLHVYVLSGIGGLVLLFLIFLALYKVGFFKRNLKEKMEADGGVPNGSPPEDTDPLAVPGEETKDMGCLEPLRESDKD
T1 sequence (P11835 24-771 partner): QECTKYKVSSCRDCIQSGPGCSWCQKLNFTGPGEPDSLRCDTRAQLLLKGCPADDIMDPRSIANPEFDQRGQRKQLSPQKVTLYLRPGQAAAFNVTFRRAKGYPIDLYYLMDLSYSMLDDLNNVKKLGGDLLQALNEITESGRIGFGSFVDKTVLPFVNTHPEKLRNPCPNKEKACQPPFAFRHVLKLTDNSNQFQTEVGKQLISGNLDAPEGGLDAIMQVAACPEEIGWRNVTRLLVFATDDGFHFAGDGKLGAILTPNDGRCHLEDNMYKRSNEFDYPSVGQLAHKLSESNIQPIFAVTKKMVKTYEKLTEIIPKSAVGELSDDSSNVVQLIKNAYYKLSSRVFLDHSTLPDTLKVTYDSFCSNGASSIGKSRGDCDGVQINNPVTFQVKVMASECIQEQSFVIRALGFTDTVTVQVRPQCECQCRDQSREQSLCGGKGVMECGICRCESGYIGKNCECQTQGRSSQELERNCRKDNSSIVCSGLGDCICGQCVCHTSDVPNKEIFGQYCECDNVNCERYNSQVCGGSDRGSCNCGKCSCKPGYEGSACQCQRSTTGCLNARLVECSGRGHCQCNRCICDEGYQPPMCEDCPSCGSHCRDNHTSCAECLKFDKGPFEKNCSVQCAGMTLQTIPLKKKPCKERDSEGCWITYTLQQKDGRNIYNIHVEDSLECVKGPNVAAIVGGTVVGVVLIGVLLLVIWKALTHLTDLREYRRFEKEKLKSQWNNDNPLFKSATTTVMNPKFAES

[5] = tested on: inflammatory mediators in the gingiva of aged mice; assay: qPCR of gingival mRNA in aged mice after local administration of soluble Del-1; format: in vivo, C57BL/6 mice; details: 12 h
Protocol: as §1
Total RNA was extracted from excised gingival tissue or cultured cells using the PerfectPure RNA cell kit (5 Prime, Fisher) and quantified by spectrometry at 260 and 280 nm. The RNA was reverse-transcribed using the High-Capacity cDNA Archive kit (Applied Biosystems) and qPCR with cDNA was performed using the ABI 7500 Fast System, according to the manufacturer's protocol (Applied Biosystems). TaqMan probes, sense primers, and antisense primers for qPCR of genes investigated in this paper were purchased from Applied Biosystems.

[6] = 18-month-old mice, local gingival microinjection 1 μg, compared to BSA control

B1: Del-1: soluble recombinant mouse Del-1 (provided by Valentis, Inc.); endothelial cell-expressed 52-kDa glycoprotein (protein)
chain: DICDPNPCENGGICLPGLADGSFSCECPDGFTDPNCSSVVEVASDEEEPTSAGPCTPNPCHNGGTCEISEAYRGDTFIGYVCKCPRGFNGIHCQHNINECEVEPCKNGGICTDLVANYSCECPGEFMGRNCQYKCSGPLGIEGGIISNQQITASSTHRALFGLQKWYPYYARLNKKGLINAWTAAENDRWPWIQINLQRKMRVTGVITQGAKRIGSPEYIKSYKIAYSNDGKTWAMYKVKGTNEDMVFRGNIDNNTPYANSFTPPIKAQYVRLYPQVCRRHCTLRMELLGCELSGCSEPLGMKSGHIQDYQITASSIFRTLNMDMFTWEPRKARLDKQGKVNAWTSGHNDQSQWLQVDLLVPTKVTGIITQGAKDFGHVQFVGSYKLAYSNDGEHWTVYQDEKQRKDKVFQGNFDNDTHRKNVIDPPIYARHIRILPWSWYGRITLRSELLGCTEEE
LFA-1-dependent adhesion of mouse neutrophils to mouse endothelial cells [1]: competitively inhibits | expression of IL-17 in the periodontium [2, 6]: diminished | expression of TNF in the periodontium [2, 6]: diminished | neutrophil infiltration in the periodontium (Ly6G staining) [2, 6]: reduced | inflammation induced by oral inoculation with Porphyromonas gingivalis ([2]; old mice, P. gingivalis inoculated): suppressed | constitutive (naturally occurring) inflammation ([2]; old mice, vehicle only): suppressed | cytokine and chemokine induction (TNF, CXCL1 release) by neutrophils [3]: did not exert a direct effect; also recorded: No significant differences | competition with ICAM-1 for binding to LFA-1 on leukocytes [4]: outcompetes ICAM-1 | C3aR mRNA, Fold change vs. Del-1-untreated controls ([5]; CMC only): 0.49 Fold change | C5aR mRNA, Fold change vs. Del-1-untreated controls ([5]; CMC only): 0.50 Fold change | CCL2 mRNA, Fold change vs. Del-1-untreated controls ([5]; CMC only): 0.48 Fold change | CCL3 mRNA, Fold change vs. Del-1-untreated controls ([5]; CMC only): 1.02 Fold change | CCL20 mRNA, Fold change vs. Del-1-untreated controls ([5]; CMC only): 0.24 Fold change | CCR2 mRNA, Fold change vs. Del-1-untreated controls ([5]; CMC only): 0.26 Fold change | CCR6 mRNA, Fold change vs. Del-1-untreated controls ([5]; CMC only): 0.25 Fold change | CD40 mRNA, Fold change vs. Del-1-untreated controls ([5]; CMC only): 0.24 Fold change | CD80 mRNA, Fold change vs. Del-1-untreated controls ([5]; CMC only): 0.25 Fold change | CD86 mRNA, Fold change vs. Del-1-untreated controls ([5]; CMC only): 0.50 Fold change | CXCL10 mRNA, Fold change vs. Del-1-untreated controls ([5]; CMC only): 0.25 Fold change | CXCR4 mRNA, Fold change vs. Del-1-untreated controls ([5]; CMC only): 0.50 Fold change | G-CSF mRNA, Fold change vs. Del-1-untreated controls ([5]; CMC only): 0.12 Fold change | IL-1 mRNA, Fold change vs. Del-1-untreated controls ([5]; CMC only): 0.50 Fold change | IL-6 mRNA, Fold change vs. Del-1-untreated controls ([5]; CMC only): 0.25 Fold change | IL-17 mRNA, Fold change vs. Del-1-untreated controls ([5]; CMC only): 0.19 Fold change | RANKL mRNA, Fold change vs. Del-1-untreated controls ([5]; CMC only): 0.49 Fold change | TLR1 mRNA, Fold change vs. Del-1-untreated controls ([5]; CMC only): 0.24 Fold change | TLR2 mRNA, Fold change vs. Del-1-untreated controls ([5]; CMC only): 0.26 Fold change | TLR4 mRNA, Fold change vs. Del-1-untreated controls ([5]; CMC only): 0.25 Fold change | TLR5 mRNA, Fold change vs. Del-1-untreated controls ([5]; CMC only): 0.51 Fold change | TLR6 mRNA, Fold change vs. Del-1-untreated controls ([5]; CMC only): 0.27 Fold change | TLR9 mRNA, Fold change vs. Del-1-untreated controls ([5]; CMC only): 0.25 Fold change | TNF mRNA, Fold change vs. Del-1-untreated controls ([5]; CMC only): 0.50 Fold change | TREM-1 mRNA, Fold change vs. Del-1-untreated controls ([5]; CMC only): 0.49 Fold change | C3aR mRNA, Fold change vs. Del-1-untreated controls ([5]; Pg (P. gingivalis inoculated)): 0.49 Fold change | C5aR mRNA, Fold change vs. Del-1-untreated controls ([5]; Pg (P. gingivalis inoculated)): 0.25 Fold change | CCL2 mRNA, Fold change vs. Del-1-untreated controls ([5]; Pg (P. gingivalis inoculated)): 0.49 Fold change | CCL3 mRNA, Fold change vs. Del-1-untreated controls ([5]; Pg (P. gingivalis inoculated)): 0.51 Fold change | CCL20 mRNA, Fold change vs. Del-1-untreated controls ([5]; Pg (P. gingivalis inoculated)): 0.49 Fold change | CCR2 mRNA, Fold change vs. Del-1-untreated controls ([5]; Pg (P. gingivalis inoculated)): 0.12 Fold change | CCR6 mRNA, Fold change vs. Del-1-untreated controls ([5]; Pg (P. gingivalis inoculated)): 0.13 Fold change | CD40 mRNA, Fold change vs. Del-1-untreated controls ([5]; Pg (P. gingivalis inoculated)): 0.25 Fold change | CD80 mRNA, Fold change vs. Del-1-untreated controls ([5]; Pg (P. gingivalis inoculated)): 0.25 Fold change | CD86 mRNA, Fold change vs. Del-1-untreated controls ([5]; Pg (P. gingivalis inoculated)): 0.49 Fold change | CXCL10 mRNA, Fold change vs. Del-1-untreated controls ([5]; Pg (P. gingivalis inoculated)): 0.26 Fold change | CXCR4 mRNA, Fold change vs. Del-1-untreated controls ([5]; Pg (P. gingivalis inoculated)): 0.24 Fold change | G-CSF mRNA, Fold change vs. Del-1-untreated controls ([5]; Pg (P. gingivalis inoculated)): 0.25 Fold change | IL-1 mRNA, Fold change vs. Del-1-untreated controls ([5]; Pg (P. gingivalis inoculated)): 0.25 Fold change | IL-6 mRNA, Fold change vs. Del-1-untreated controls ([5]; Pg (P. gingivalis inoculated)): 0.24 Fold change | IL-17 mRNA, Fold change vs. Del-1-untreated controls ([5]; Pg (P. gingivalis inoculated)): 0.25 Fold change | RANKL mRNA, Fold change vs. Del-1-untreated controls ([5]; Pg (P. gingivalis inoculated)): 0.25 Fold change | TLR1 mRNA, Fold change vs. Del-1-untreated controls ([5]; Pg (P. gingivalis inoculated)): 0.24 Fold change | TLR2 mRNA, Fold change vs. Del-1-untreated controls ([5]; Pg (P. gingivalis inoculated)): 0.25 Fold change | TLR4 mRNA, Fold change vs. Del-1-untreated controls ([5]; Pg (P. gingivalis inoculated)): 0.12 Fold change | TLR5 mRNA, Fold change vs. Del-1-untreated controls ([5]; Pg (P. gingivalis inoculated)): 0.51 Fold change | TLR6 mRNA, Fold change vs. Del-1-untreated controls ([5]; Pg (P. gingivalis inoculated)): 0.26 Fold change | TLR9 mRNA, Fold change vs. Del-1-untreated controls ([5]; Pg (P. gingivalis inoculated)): 0.51 Fold change | TNF mRNA, Fold change vs. Del-1-untreated controls ([5]; Pg (P. gingivalis inoculated)): 0.51 Fold change | TREM-1 mRNA, Fold change vs. Del-1-untreated controls ([5]; Pg (P. gingivalis inoculated)): 0.24 Fold change
